Results as given in doi:10.1101/2025.08.18.670902, “Pyrimethamine inhibits mutant NRF2 as a molecular glue” (bioRxiv, 2025).

Target: T1, Kelch fragment (Ala321-Glu611 of human KEAP1 protein) (human, UniProt Q14145 321-611, biotinylated (site not stated))
T1 construct: KEAP1, human, Kelch fragment Ala321-Glu611, printed MW 34,038.03 Da; Captured on a streptavidin chip through biotin; also called Kelch fragment of KEAP1; biotinylated Kelch; source: expressed in vitro, purified, biotinylated, validated by LC-MS
T1 sequence (Q14145 321-611): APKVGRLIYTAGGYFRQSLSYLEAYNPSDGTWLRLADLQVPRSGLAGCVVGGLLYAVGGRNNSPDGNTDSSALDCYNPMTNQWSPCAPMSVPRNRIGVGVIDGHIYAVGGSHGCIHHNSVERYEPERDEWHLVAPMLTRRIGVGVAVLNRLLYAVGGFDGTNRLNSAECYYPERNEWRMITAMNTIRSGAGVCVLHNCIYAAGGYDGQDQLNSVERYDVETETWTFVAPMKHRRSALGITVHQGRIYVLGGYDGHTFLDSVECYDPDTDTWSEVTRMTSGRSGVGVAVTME
Assay: SPR; Biacore S200, biotinylated Kelch immobilised on a streptavidin chip; peptide analyte in 2-fold dilutions 200 μM to 0.39 μM, 30 μl/min, 90 s association, 180 s dissociation, analysis at 15 °C; without PYR
Conditions: both partners purified

binding result: binds
B1: DLG^WT peptide (NRF2 residues 17-40) (peptide)
peptide: MDLIDILWRQDIDLGVSREVFDFS
notes: NRF2 (NFE2L2), human, residues 17-40 with the DLG motif; also called 24-mer peptide; source: synthetic peptide
